T1: human IL-12 (human, UniProt P29459 23-219; P29460 23-328)
T1 construct: recombinant human IL-12 heterodimer (p35/p40, disulfide-linked); also called hIL-12; rhIL-12
T1 sequence (looked up) 1: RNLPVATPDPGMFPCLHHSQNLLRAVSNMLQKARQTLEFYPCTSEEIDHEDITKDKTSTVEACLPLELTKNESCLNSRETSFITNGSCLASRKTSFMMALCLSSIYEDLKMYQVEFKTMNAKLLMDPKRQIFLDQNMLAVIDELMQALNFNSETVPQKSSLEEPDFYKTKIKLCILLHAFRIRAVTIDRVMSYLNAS
T1 sequence (looked up) 2: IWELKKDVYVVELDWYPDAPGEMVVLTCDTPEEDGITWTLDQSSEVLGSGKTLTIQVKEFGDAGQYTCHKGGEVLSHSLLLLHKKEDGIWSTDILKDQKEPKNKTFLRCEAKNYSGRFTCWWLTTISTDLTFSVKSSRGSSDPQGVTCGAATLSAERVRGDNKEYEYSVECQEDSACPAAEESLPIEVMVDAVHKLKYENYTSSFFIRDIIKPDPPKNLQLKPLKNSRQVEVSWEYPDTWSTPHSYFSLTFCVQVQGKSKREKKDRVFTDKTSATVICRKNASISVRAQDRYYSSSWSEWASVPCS

T2: recombinant human IL-12 (rhIL-12) (human, UniProt P29459 23-219; P29460 23-328)
T2 construct: disulfide-linked p35/p40 heterodimer (p70); also called IL-12 p70; rec. human IL12
T2 sequence (looked up) 1: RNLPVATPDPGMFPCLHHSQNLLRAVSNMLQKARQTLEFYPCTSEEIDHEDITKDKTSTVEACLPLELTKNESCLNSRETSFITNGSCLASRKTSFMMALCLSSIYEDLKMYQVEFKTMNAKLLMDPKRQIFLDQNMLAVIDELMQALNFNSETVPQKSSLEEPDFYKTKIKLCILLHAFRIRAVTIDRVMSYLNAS
T2 sequence (looked up) 2: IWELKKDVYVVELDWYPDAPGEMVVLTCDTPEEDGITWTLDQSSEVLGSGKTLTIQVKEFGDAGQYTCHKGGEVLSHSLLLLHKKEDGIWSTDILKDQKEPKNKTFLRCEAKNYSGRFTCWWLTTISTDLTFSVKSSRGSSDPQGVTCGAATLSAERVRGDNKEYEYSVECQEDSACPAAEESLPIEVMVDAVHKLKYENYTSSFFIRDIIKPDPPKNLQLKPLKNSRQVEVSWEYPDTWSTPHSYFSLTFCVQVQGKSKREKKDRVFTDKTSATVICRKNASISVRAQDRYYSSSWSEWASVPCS

B1: B9 (scFv, V domains shown)
VH: QVQLVQSGGGVVQPGRSLRLSCAASGFTFSSYGMHWVRQAPGKGLEWVAFIRYDGSNKYYADSVKGRFTISRDNSKNTLYLQMKSLRAEDTAVYYCKTHGSHDNWGQGTMVTVSS
VL: SYVLTQPPSVSGTPGQRVTISCSGGRSNIGSNTVKWYQQLPGTAPKLLIYGNDQRPSGVPDRFSGSKSGTSASLAITGVQAEDEADYYCQSYDRGRAAHPQFGTGTKVTVL
notes: scFv
B2: C5 (scFv, V domains shown)
VH: QVQLVQSGGGVVQPGRSLRLSCAASGFTFSSYGMHWVRQAPGKGLEWVAFIRYDGSNKYYADSVKGRFTISRDNSKNTLYLQMKSLRAEDTAVYYCKTHGSHDNWGQGTMVTVSS
VL: SYVLTQPPSVSGTPGQRVTISCSGGRSNIGSNTVKWYQQLPGTAPKLLIYGNDQRPSGVPDRFSGSKSGTSASLAITGVQAEDEADYYCQSYDRGPHTQPTFGTGTKVTVL
notes: scFv
B3: C6 (scFv, V domains shown)
VH: QVQLVQSGGGVVQPGRSLRLSCAASGFTFSSYGMHWVRQAPGKGLEWVAFIRYDGSNKYYADSVKGRFTISRDNSKNTLYLQMKSLRAEDTAVYYCKTHGSHDNWGQGTMVTVSS
VL: SYVLTQPPSVSGTPGQRVTISCSGGRSNIGSNTVKWYQQLPGTAPKLLIYGNDQRPSGVPDRFSGSKSGTSASLAITGVQAEDEADYYCQSYDRGQTPSITFGTGTKVTVL
notes: scFv
B4: C7 (scFv, V domains shown)
VH: QVQLVQSGGGVVQPGRSLRLSCAASGFTFSSYGMHWVRQAPGKGLEWVAFIRYDGSNKYYADSVKGRFTISRDNSKNTLYLQMKSLRAEDTAVYYCKTHGSHDNWGQGTMVTVSS
VL: SYVLTQPPSVSGTPGQRVTISCSGGRSNIGSNTVKWYQQLPGTAPKLLIYGNDQRPSGVPDRFSGSKSGTSASLAITGVQAEDEADYYCQSYDRGIPTSYLFGTGTKVTVL
notes: scFv
B5: C3 (scFv, V domains shown)
VH: QVQLVQSGGGVVQPGRSLRLSCAASGFTFSSYGMHWVRQAPGKGLEWVAFIRYDGSNKYYADSVKGRFTISRDNSKNTLYLQMKSLRAEDTAVYYCKTHGSHDNWGQGTMVTVSS
VL: SYVLTQPPSVSGTPGQRVTISCSGGRSNIGSNTVKWYQQLPGTAPKLLIYGNDQRPSGVPDRFSGSKSGTSASLAITGVQAEDEADYYCQSYDSGVDPGPYFGTGTKVTVL
notes: scFv
B6: C9 (scFv, V domains shown)
VH: QVQLVQSGGGVVQPGRSLRLSCAASGFTFSSYGMHWVRQAPGKGLEWVAFIRYDGSNKYYADSVKGRFTISRDNSKNTLYLQMKSLRAEDTAVYYCKTHGSHDNWGQGTMVTVSS
VL: SYVLTQPPSVSGTPGQRVTISCSGGRSNIGSNTVKWYQQLPGTAPKLLIYGNDQRPSGVPDRFSGSKSGTSASLAITGVQAEDEADYYCQSYDRGPTHLPHFGTGTKVTVL
notes: scFv
B7: C12 (scFv, V domains shown)
VH: QVQLVQSGGGVVQPGRSLRLSCAASGFTFSSYGMHWVRQAPGKGLEWVAFIRYDGSNKYYADSVKGRFTISRDNSKNTLYLQMKSLRAEDTAVYYCKTHGSHDNWGQGTMVTVSS
VL: SYVLTQPPSVSGTPGQRVTISCSGGRSNIGSNTVKWYQQLPGTAPKLLIYGNDQRPSGVPDRFSGSKSGTSASLAITGVQAEDEADYYCQSYDRGLRVQAPFGTGTKVTVL
notes: scFv
B8: C8 (scFv, V domains shown)
VH: QVQLVQSGGGVVQPGRSLRLSCAASGFTFSSYGMHWVRQAPGKGLEWVAFIRYDGSNKYYADSVKGRFTISRDNSKNTLYLQMKSLRAEDTAVYYCKTHGSHDNWGQGTMVTVSS
VL: SYVLTQPPSVSGTPGQRVTISCSGGRSNIGSNTVKWYQQLPGTAPKLLIYGNDQRPSGVPDRFSGSKSGTSASLAITGVQAEDEADYYCQSYDSGTSNLLPFGTGTKVTVL
notes: scFv
B9: M2 A4 (scFv, V domains shown)
VH: QVQLVQSGGGVVQPGRSLRLSCAASGFTFSSYGMHWVRQAPGKGLEWVAFIRYDGSNKYYADSVKGRFTISRDNSKNTLYLQMKSLRAEDTAVYYCKTHGSHDNWGQGTMVTVSS
VL: SYVLTQPPSVSGTPGQRVTISCSGGRSNIGSNTVKWYQQLPGTAPKLLIYGNDQRPSGVPDRFSGSKSGTSASLAITGVQAEDEADYYCQSYDSGFPGSRVFGTGTKVTVL
notes: scFv
B10: B10 (scFv, V domains shown)
VH: QVQLVQSGGGVVQPGRSLRLSCAASGFTFSSYGMHWVRQAPGKGLEWVAFIRYDGSNKYYADSVKGRFTISRDNSKNTLYLQMKSLRAEDTAVYYCKTHGSHDNWGQGTMVTVSS
VL: SYVLTQPPSVSGTPGQRVTISCSGGRSNIGSNTVKWYQQLPGTAPKLLIYGNDQRPSGVPDRFSGSKSGTSASLAITGVQAEDEADYYCQSYDRGLSDSPLFGTGTKVTVL
notes: scFv
B11: B11 (scFv, V domains shown)
VH: QVQLVQSGGGVVQPGRSLRLSCAASGFTFSSYGMHWVRQAPGKGLEWVAFIRYDGSNKYYADSVKGRFTISRDNSKNTLYLQMKSLRAEDTAVYYCKTHGSHDNWGQGTMVTVSS
VL: SYVLTQPPSVSGTPGQRVTISCSGGRSNIGSNTVKWYQQLPGTAPKLLIYGNDQRPSGVPDRFSGSKSGTSASLAITGVQAEDEADYYCQSYDRGITPGLAFGTGTKVTVL
notes: scFv
B12: M2 C3 (scFv, V domains shown)
VH: QVQLVQSGGGVVQPGRSLRLSCAASGFTFSSYGMHWVRQAPGKGLEWVAFIRYDGSNKYYADSVKGRFTISRDNSKNTLYLQMKSLRAEDTAVYYCKTHGSHDNWGQGTMVTVSS
VL: SYVLTQPPSVSGTPGQRVTISCSGGRSNIGSNTVKWYQQLPGTAPKLLIYGNDQRPSGVPDRFSGSKSGTSASLAITGVQAEDEADYYCQSYDTGLTGSRVFGTGTKVTVL
notes: scFv
B13: M2 B4 (scFv, V domains shown)
VH: QVQLVQSGGGVVQPGRSLRLSCAASGFTFSSYGMHWVRQAPGKGLEWVAFIRYDGSNKYYADSVKGRFTISRDNSKNTLYLQMKSLRAEDTAVYYCKTHGSHDNWGQGTMVTVSS
VL: SYVLTQPPSVSGTPGQRVTISCSGGRSNIGSNTVKWYQQLPGTAPKLLIYGNDQRPSGVPDRFSGSKSGTSASLAITGVQAEDEADYYCQSYDIGLTGSRVFGTGTKVTVL
notes: scFv
B14: 99-C11 (scFv, V domains shown)
VH: QVQLVQSGGGVVQPGRSLRLSCAASGFTFSSYGMHWVRQAPGKGLEWVAFIRYDGSNKYYADSVKGRFTISRDNSKNTLYLQMKSLRAEDTAVYYCKTHGSHDNWGQGTMVTVSS
VL: SYVLTQPPSVSGTPGQRVTISCSGGRSNIGSNTVKWYQQLPGTAPKLLIYGNDQRPSGVPDRFSGSKSGTSASLAITGVQAEDEADYYCQSYDSGFTGSRVFGTGTKVTVL
notes: scFv clone
B15: 99-B11 (scFv, V domains shown)
VH: QVQLVQSGGGVVQPGRSLRLSCAASGFTFSSYGMHWVRQAPGKGLEWVAFIRYDGSNKYYADSVKGRFTISRDNSKNTLYLQMKSLRAEDTAVYYCKTHGSHDNWGQGTMVTVSS
VL: SYVLTQPPSVSGTPGQRVTISCSGGRSNIGSNTVKWYQQLPGTAPKLLIYGNDQRPSGVPDRFSGSKSGTSASLAITGVQAEDEADYYCQSYDSGYTGSRVFGTGTKVTVL
notes: scFv clone

Consider 15 molecules from patent US20150037348A1 (AbbVie / Abbott, published 2015).

One may read the koff as a measure of how fast the partners let go of each other.

The first test concerns the target T1, human IL-12. In words: SPR (BIAcore), IL-12 chip. The source says: The system utilizes the optical properties of SPR to detect alterations in protein concentrations within a dextran biosensor matrix. Proteins are covalently bound to the dextran matrix at known concentrations. […] To determine the off rate (koff), on rate (kₒₙ), association rate (Ka) and dissociation rate (Kd) constants, BIAcore kinetic evaluation software (version 2.1) was used.
(In SPR one partner is held on a chip, and binding of the other changes the refractive index at the surface.)
B1: the koff worked out at 0.00866 s⁻¹.
The molecule B2 had a koff of 0.00391 s⁻¹.
Still for that read-out and setting: under B3 stands 0.00242 s⁻¹; under B4, 0.00583 s⁻¹; under B5, 0.00334 s⁻¹.
On the same count and under the same terms, with B6 the figure was 0.00397 s⁻¹; with B7, 0.00585 s⁻¹; with B8, 0.00536 s⁻¹.
On to B9, for which the koff was 0.00849 s⁻¹.
Take B10: the koff was determined as 0.00604 s⁻¹.
In the case of B11, the koff amounted to 0.00295 s⁻¹.
In turn, B12 came in with a koff of 0.0462 s⁻¹.
Same read-out and setting: with B13 the figure was 0.0442 s⁻¹.

In the next test the target is T2, recombinant human IL-12 (rhIL-12). Briefly: BIAcore SPR, IL-12 on chip.
Take B14: the koff is 0.0057 s⁻¹.
Still for that read-out and setting: under B15 stands 0.0054 s⁻¹.
